Tested on: T1, C. elegans HIF-α homologue, wild type
T1 sequence: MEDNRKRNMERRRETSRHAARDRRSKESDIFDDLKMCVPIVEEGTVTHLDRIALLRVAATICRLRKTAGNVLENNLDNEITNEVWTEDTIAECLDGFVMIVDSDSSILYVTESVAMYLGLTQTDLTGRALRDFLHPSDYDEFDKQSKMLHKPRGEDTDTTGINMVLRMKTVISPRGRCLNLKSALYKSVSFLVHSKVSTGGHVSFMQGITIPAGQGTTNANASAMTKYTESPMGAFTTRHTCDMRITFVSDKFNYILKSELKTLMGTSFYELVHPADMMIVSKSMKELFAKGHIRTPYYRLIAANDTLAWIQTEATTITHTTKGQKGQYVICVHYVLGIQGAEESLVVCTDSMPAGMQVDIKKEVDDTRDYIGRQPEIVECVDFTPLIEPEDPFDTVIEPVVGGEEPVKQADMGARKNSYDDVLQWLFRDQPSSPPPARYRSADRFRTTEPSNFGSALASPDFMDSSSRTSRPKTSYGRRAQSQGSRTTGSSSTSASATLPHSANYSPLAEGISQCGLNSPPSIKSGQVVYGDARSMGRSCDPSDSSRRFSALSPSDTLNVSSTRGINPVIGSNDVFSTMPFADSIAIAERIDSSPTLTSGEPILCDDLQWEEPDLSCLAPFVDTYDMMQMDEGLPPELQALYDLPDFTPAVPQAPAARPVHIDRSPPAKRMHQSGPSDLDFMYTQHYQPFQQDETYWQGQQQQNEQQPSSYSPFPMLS

## gene product of the predicted ORF T20B3.7
  modification of HIF-1 read by HA.VHL-1 capture: had no activity in these assays

Source: patent US20040146964
